The values that follow come from the supplement of paper PMC9732359.

This data set is described as follows: protein stability index of a GFP-peptide fusion (yeast GPS) (PSI 1-4); higher = more stable; sorted into four equal gates, so the index is relative within each strain. Put shortly:
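Tiled 17-residue peptides from yeast proteins were fused downstream of GFP on a plasmid that also expresses Cherry, and the pooled library was carried in yeast. Mid-log cultures grown in leucine-free medium were sorted into four equal gates by GFP/Cherry fluorescence ratio. Plasmids from each gate were PCR-amplified and Illumina-sequenced, and reads were assigned to strains by barcodes. Each peptide's protein stability index is the sum, over gates, of the gate's read frequency multiplied by its gate number.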

± gives the uncertainty stated by the source.

Consider YNVENQQYVAAGDLRAL [FAS1], for which the protein stability index runs as follows: (doa10∆) 2.81 ± 0.11; (pdr5∆) 2.83 ± 0.087; (san1∆) 2.82 ± 0.13; (ubr1∆) 2.85 ± 0.13.

In turn, YPVHEAHKGQIVLIKGI [SNU114] showed a protein stability index (doa10∆) of 1.52 ± 0.095, a protein stability index (pdr5∆) of 2.45 ± 0.088, a protein stability index (san1∆) of 1.37 ± 0.15 and a protein stability index (ubr1∆) of 2.87 ± 0.088.

Consider YQKLFSQFINDHILFTK [SRB8], for which the protein stability index runs as follows: (doa10∆) 1.94 ± 0.044; (pdr5∆) 2.06 ± 0.048; (san1∆) 2.04 ± 0.065; (ubr1∆) 2 ± 0.04.

For the sequence YQWNLDGLQQLDKYLYV [RPN1], the protein stability index was determined as 2.92 ± 0.068 (doa10∆), 3.08 ± 0.058 (pdr5∆), 2.49 ± 0.12 (san1∆) and 2.2 ± 0.046 (ubr1∆).

As to YSIDEFFLQRKLRSELG [BRR2], the protein stability index runs as follows: (doa10∆) 2.3 ± 0.12; (pdr5∆) 2.06 ± 0.13; (san1∆) 1.8 ± 0.16; (ubr1∆) 1.5 ± 0.22.

YSKNNPNLLFSMCGFEV [PRP8] came in with a protein stability index (doa10∆) of 2.96 ± 0.093, a protein stability index (pdr5∆) of 2.69 ± 0.093, a protein stability index (san1∆) of 2.17 ± 0.076 and a protein stability index (ubr1∆) of 2.4 ± 0.092.

Consider YSKSFEQFKMVSMITDH [POP1], for which the protein stability index (doa10∆) is 2.3 ± 0.12, the protein stability index (pdr5∆) was 1.97 ± 0.23, the protein stability index (san1∆) worked out at 1.62 ± 0.26 and the protein stability index (ubr1∆) came to 1.95 ± 0.15.

With YSMISLQNCCIIDVGTH [ARP9], the protein stability index is, setting by setting: (doa10∆) 1.75 ± 0.085; (pdr5∆) 1.41 ± 0.067; (san1∆) 1.2 ± 0.15; (ubr1∆) 1.33 ± 0.083.

YSSVAGTVSRVNRLLSV [RRP4]: the protein stability index was 1.74 ± 0.036 (doa10∆), 1.77 ± 0.038 (pdr5∆), 1.82 ± 0.053 (san1∆) and 1.8 ± 0.03 (ubr1∆).

In the case of YSTIRQLVYKRGFGKIN [RPL7A], the protein stability index was found to be 2.34 ± 0.064 (doa10∆), 1.97 ± 0.047 (pdr5∆), 2.24 ± 0.11 (san1∆) and 1.98 ± 0.049 (ubr1∆).

In the case of YSWLLFEASCMEGQKLD [YJR042W/NUP85], the protein stability index is, setting by setting: (doa10∆) 1.09 ± 0.094; (pdr5∆) 1.36 ± 0.09; (san1∆) 1.39 ± 0.2; (ubr1∆) 1.17 ± 0.064.

On to YSYTTIVLSDQTQEFFL [YJL039C/NUP192], for which the protein stability index is, setting by setting: (doa10∆) 2.79 ± 0.077; (pdr5∆) 2.92 ± 0.068; (san1∆) 2.93 ± 0.081; (ubr1∆) 2.82 ± 0.062.

As for YTETDPAKVAEEGINKF [SRP54], the protein stability index is, setting by setting: (doa10∆) 3.05 ± 0.1; (pdr5∆) 3.3 ± 0.097; (san1∆) 2.9 ± 0.089; (ubr1∆) 3.04 ± 0.095.

Take YTKPYPNFEASFVHGVV [SMC2]: the protein stability index was determined as 2.53 ± 0.15 (doa10∆), 2.32 ± 0.13 (pdr5∆), 2.47 ± 0.26 (san1∆) and 2.33 ± 0.14 (ubr1∆).

YTPEESAWIWPMDEETK [RPC25] registered a protein stability index (doa10∆) of 2.34 ± 0.068, a protein stability index (pdr5∆) of 2.62 ± 0.074, a protein stability index (san1∆) of 2.54 ± 0.086 and a protein stability index (ubr1∆) of 2.65 ± 0.098.

In the case of YVDTATAKRKSRKRKPK [IRR1], the protein stability index was found to be 3.17 ± 0.1 (doa10∆), 3.32 ± 0.1 (pdr5∆), 3.14 ± 0.16 (san1∆) and 3.12 ± 0.066 (ubr1∆).

As for YVGEVIKIVSDKKVLVK [RPT6], the protein stability index reads like this: (doa10∆) 3.03 ± 0.058; (pdr5∆) 2.9 ± 0.055; (san1∆) 3.08 ± 0.067; (ubr1∆) 2.94 ± 0.073.

YVNYEISTAKAWGALIT [YML103C/NUP188]: the protein stability index runs as follows: (doa10∆) 1.32 ± 0.052; (pdr5∆) 1.43 ± 0.049; (san1∆) 1.3 ± 0.073; (ubr1∆) 1.4 ± 0.06.

Consider YVRAKFLDYTTDNVSMY [PRP8], for which the protein stability index amounted to 2.82 ± 0.059 (doa10∆), 2.73 ± 0.064 (pdr5∆), 2.54 ± 0.063 (san1∆) and 2.82 ± 0.061 (ubr1∆).

In the case of YWQFNGVIALGQFVTLG [RMP1], the protein stability index reads like this: (doa10∆) 3.23 ± 0.094; (pdr5∆) 2.79 ± 0.086; (san1∆) 2.11 ± 0.086; (ubr1∆) 2.91 ± 0.055.

On to YWVPDWDGVIPTPAIIK [RPO21], for which the protein stability index by setting is: (doa10∆) 2.34 ± 0.14; (pdr5∆) 2.7 ± 0.096; (san1∆) 2.8 ± 0.081; (ubr1∆) 2.8 ± 0.079.

On to YWYEQDSAKEWPQSKNC [RPB3], for which the protein stability index came to 3.4 ± 0.12 (doa10∆), 3.3 ± 0.13 (pdr5∆), 2.98 ± 0.13 (san1∆) and 3.43 ± 0.22 (ubr1∆).
